Values of other authors in article PMC7228754.

Molecular target: Rab1b (Homo sapiens) (UniProt Q9H0U4)
Sequence (Q9H0U4 whole entry): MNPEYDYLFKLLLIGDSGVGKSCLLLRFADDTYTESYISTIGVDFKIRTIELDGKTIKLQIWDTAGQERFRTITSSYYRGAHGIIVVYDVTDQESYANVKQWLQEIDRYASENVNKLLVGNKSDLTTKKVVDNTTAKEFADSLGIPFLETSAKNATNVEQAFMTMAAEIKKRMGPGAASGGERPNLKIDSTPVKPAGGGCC

Chain of AnkX (Q5ZXN6 whole entry): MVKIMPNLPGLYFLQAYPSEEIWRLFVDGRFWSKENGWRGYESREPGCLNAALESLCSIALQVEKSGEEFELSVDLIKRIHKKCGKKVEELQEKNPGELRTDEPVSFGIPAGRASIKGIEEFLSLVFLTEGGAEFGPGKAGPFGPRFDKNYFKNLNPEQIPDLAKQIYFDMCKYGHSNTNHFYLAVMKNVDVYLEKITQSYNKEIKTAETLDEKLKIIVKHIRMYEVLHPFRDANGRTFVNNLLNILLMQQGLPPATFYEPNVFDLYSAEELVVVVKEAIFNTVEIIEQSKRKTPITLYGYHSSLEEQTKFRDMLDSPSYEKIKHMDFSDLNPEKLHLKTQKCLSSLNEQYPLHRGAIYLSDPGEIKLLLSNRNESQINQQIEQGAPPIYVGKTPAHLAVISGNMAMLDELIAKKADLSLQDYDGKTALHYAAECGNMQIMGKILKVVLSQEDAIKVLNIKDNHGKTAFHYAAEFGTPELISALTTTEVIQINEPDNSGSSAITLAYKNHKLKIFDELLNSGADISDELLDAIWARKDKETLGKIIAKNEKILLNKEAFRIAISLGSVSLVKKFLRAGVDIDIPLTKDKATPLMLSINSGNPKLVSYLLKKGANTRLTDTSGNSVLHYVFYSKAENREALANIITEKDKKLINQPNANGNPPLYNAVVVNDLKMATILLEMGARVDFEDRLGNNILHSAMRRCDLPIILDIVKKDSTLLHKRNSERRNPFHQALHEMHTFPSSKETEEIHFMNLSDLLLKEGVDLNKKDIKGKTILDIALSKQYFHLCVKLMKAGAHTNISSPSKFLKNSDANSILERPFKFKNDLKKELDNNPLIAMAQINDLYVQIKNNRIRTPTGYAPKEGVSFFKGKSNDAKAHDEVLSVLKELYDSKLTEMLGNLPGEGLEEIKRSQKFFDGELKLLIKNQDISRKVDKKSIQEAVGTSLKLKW

Substance: AnkX (from UniProt Q5ZXN6)
- Kd: 122 µM
